In patent US20250136687A1 (SHANDONG SIMCERE BIOPHARMACEUTICAL, published 2025):
Like-named read-outs stand apart in the source and are kept apart here. Each block holds one binder with its values, some of them ahead of it.

Columns and labels:
[1] = target: T1, recombinant human CD3ε-ECD His protein (human, UniProt P07766 23-126); assay: SPR (Biacore), antibody captured on Protein A chip
T1 construct: extracellular domain; also called human CD3ε-His; CD3ε antigen protein; not shown: His tag
Experimental: Sample buffer and running buffer were HBS-EP+(10 mM HEPES, 150 mM NaCl, 3 mM EDTA, 0.05% surfactant P20) (GE Healthcare; BR-1006-69). The flow-through cell was set to 25° C. The sample block was set to 16° C. Both were pretreated with the running buffer. In each cycle, the antibody to be detected was first captured with a Protein A chip, and then a single concentration of CD3ε antigen protein (purchased from Sino Biological, Inc. (China), catalog number: 10977-H08H) was injected. The binding and dissociation processes of the antibody and the antigen protein were recorded, and finally a glycine solution (pH 1.5, GE Healthcare; BR-1003-54) was used to complete chip regeneration. The binding was measured by injecting different concentrations of recombinant human CD3ε-ECD His proteins in a solution for 240 s with a flow rate of 30 μL/min. The concentration started from 200 nM (see the detailed results for the actual concentration in the test) and was diluted at 1:1, making a total of 5 concentrations. The dissociation phase was monitored for up to 600 s and was triggered by switching from sample solution to running buffer. The surface was regenerated by washing with a 10 mM glycine solution (pH 1.5) for 30 s at a flow rate of 30 μL/min. Bulk refractive index difference was corrected by subtracting the response obtained from the goat anti-human Fc surface. Blank injection was also subtracted (=double reference). For calculation of apparent KD and other kinetic parameters, Langmuir 1:1 model was used.

[2] = target: T2, human CD3 on the cell surface (Jurkat cells, expanded human T cells, Jurkat-Lucia NFAT cells, human PBMC) (human, UniProt P07766 23-207; P04234 22-171; P09693 23-182); assay: cell-based or functional assay
[3] = target: T2, human CD3 on the cell surface (Jurkat …); assay: FACS, expanded human T cells
Experimental: (§1) The binding of the chimeric antibodies to CD3 on the cell surface was analyzed by detecting the binding of the antibodies to Jurkat cells and human T cells. Suspension cells Jurkat cells were scale-up cultured in T-75 cell culture flasks to the logarithmic growth phase, the supernatant of the medium was discarded by centrifugation, and the cell pellet was washed 2 times with PBS for later use. The expanded human T cells were washed 2 times with PBS for later use. After counting the cells in the previous step, the cell pellet was resuspended with [PBS+2% (w/w) BSA] blocking solution to 4×10⁶ cells/ml, and added to a 96-well FACS reaction plate at 50 μl/well, and then the chimeric antibody to be tested was added at 50 μl/well, and incubated at 4° C. for 1 h. The cells were centrifuged and washed 3 times with a PBS buffer. […] The cells were centrifuged and washed 5 times with PBS, and FACS (FACS Canto™, purchased from BD Company) was used for detection and result analysis. Data analysis was performed by software (CellQuest) to obtain the mean fluorescence […] (MFI) of the cells. And then software (GraphPad Prism8) was used for analysis, data fitting, and EC50 value calculation. The same method was used to simultaneously detect the binding of the chimeric antibodies to endogenous CD3 negative cells MOLT4 cells.

[4] = target: T3, cynomolgus monkey CD3 on the surface of expanded monkey T cells (cynomolgus monkey, UniProt Q95LI5 22-198; Q95LI8 22-171; Q95LI7 23-181); assay: FACS, expanded monkey T cells
T3 construct: whole, on cells; Endogenous CD3 within the TCR-CD3 complex on T cells expanded from cynomolgus monkey PBMC
Experimental: as §1
(§2) FACS detection and data analysis were performed on the cryopreserved monkey T cells of Example 2.4 according to the method in Example 5.1.

[5] = target: T2, human CD3 on the cell surface (Jurkat …); assay: FACS, Jurkat cells
Experimental: as §1

[6] = target: T2, human CD3 on the cell surface (Jurkat …); assay: FACS, expanded human T cells; remark: listed apart in the source
Experimental: as §1
The expanded human PBMC cells were collected, and FACS detection and data analysis were performed according to the method in Example 5.1.

[7] = target: T1, recombinant human CD3ε-ECD His protein; assay: ELISA, coated antigen
Experimental: (§3) To detect the binding activity of the humanized antibodies to CD3 protein, CD3 protein was diluted with PBS to the final concentration of […], then added to a 96-well ELISA plate at 50 μL/well, and the plate was sealed with a plastic film, and incubated overnight at 4° C. On the next day, the plate was washed 2 times with PBS, and a blocking solution [PBS+2% (v/v) BSA] was added for blocking at room temperature for 2 h. The blocking solution was poured off, and the antibody (initial concentration of 100 nM, and gradient dilution at 1:10) or a negative control antibody was added at 50 µl/well. After incubation at 37° C. for 2 h, the plate was washed 3 times with PBS. […] TMB substrate was added at 50 μl/well, and incubated at room temperature for 10 min, and then a stop solution (1.0 N HCl) was added at 50 μl/well. The OD450 nm values were read by an ELISA microplate reader (Multimode Plate Reader, EnSight, purchased from Perkin Elmer).

[8] = target: T4, human CD3ε/δ-His (human, UniProt P07766 23-126; P04234 22-105); assay: ELISA, coated antigen
T4 construct: Bought recombinant heterodimer with His tag; also called human CD3ε/δ protein
Experimental: as §3

[9] = target: T1, recombinant human CD3ε-ECD His protein; assay: ELISA, coated antigen; remark: listed apart in the source
Experimental: as §3

[10] = target: T4, human CD3ε/δ-His; assay: ELISA, coated antigen; remark: listed apart in the source
Experimental: as §3

[11] = target: T1, recombinant human CD3ε-ECD His protein; assay: ELISA, coated antigen; remark: listed apart in the source
Experimental: as §3

[12] = target: T4, human CD3ε/δ-His; assay: ELISA, coated antigen; remark: listed apart in the source
Experimental: as §3

[13] = target: T3, cynomolgus monkey CD3 on the surface of …; assay: FACS, expanded monkey T cells, 4 nM antibody
Experimental: as §1, §2

[14] = target: T2, human CD3 on the cell surface (Jurkat …); assay: cell-based or functional assay; remark: listed apart in the source
[15] = target: T2, human CD3 on the cell surface (Jurkat …); assay: FACS, expanded human T cells; remark: listed apart in the source
Experimental: as §1

[16] = target: T3, cynomolgus monkey CD3 on the surface of …; assay: FACS, expanded monkey T cells; remark: listed apart in the source
Experimental: as §1
The expanded monkey T cells were collected, and FACS detection and data analysis were performed according to the method in Example 5.1.

[17] = target: T5, monkey CD3ε/δ-His (monkey, UniProt Q95LI5 22-117; Q95LI8 22-105); assay: ELISA, coated antigen
T5 construct: Bought recombinant heterodimer with His tag
Experimental: as §3
(§4) To detect the binding activity of the humanized antibodies to monkey CD3 protein, CD3 protein was diluted with PBS to the final concentration of […], and then added to a 96-well ELISA plate at 50 μl/well.

[18] = target: T6, monkey CD3ε protein (monkey, UniProt Q95LI5 22-117, limits assumed); assay: ELISA, coated antigen
T6 sequence (looked up): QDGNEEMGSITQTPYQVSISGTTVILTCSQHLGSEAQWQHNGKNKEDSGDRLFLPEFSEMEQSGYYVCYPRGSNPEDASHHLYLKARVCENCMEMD
Experimental: as §3, §4

[19] = target: T1, recombinant human CD3ε-ECD His protein; assay: SPR, antibody captured on Protein A chip
Experimental: (§5) Running buffer was HBS-EP+(10 mM HEPES, 150 mM NaCl, 3 mM EDTA, 0.05% surfactant P20) (GE Healthcare; BR-1006-69). The flow-through cell was set to 25° C. The sample block was set to 16° C. Both were pretreated with the running buffer. In each cycle, an antibody to be detected was first captured with a Protein A chip, and then a single concentration of CD3ε antigen protein was injected. The binding and dissociation processes of the antibody and the antigen protein were recorded, and finally Glycine pH 1.5 (GE Healthcare; BR-1003-54) was used to complete chip regeneration. The binding was measured by injecting different concentrations of recombinant human CD3ε proteins in a solution for 240 s with a flow rate of 30 μL/min. The concentration started from 200 nM (see the detailed results for the actual concentration in the test) and was diluted at 1:1, making a total of 5 concentrations. The dissociation phase was monitored for up to 600 s and was triggered by switching from sample solution to running buffer. The surface was regenerated by washing with a 10 mM glycine solution (pH 1.5) for 30 s at a flow rate of 30 μL/min. Bulk refractive index difference was corrected by subtracting the response obtained from the goat anti-human Fc surface, and the blank injection was subtracted at the same time (=double reference). For calculation of apparent KD value and other kinetic parameters, Langmuir 1:1 model was used.

[20] = target: T4, human CD3ε/δ-His; assay: SPR, antibody captured on Protein A chip
Experimental: as §5

T2 sequence (P07766 23-207, chain 1 of 3): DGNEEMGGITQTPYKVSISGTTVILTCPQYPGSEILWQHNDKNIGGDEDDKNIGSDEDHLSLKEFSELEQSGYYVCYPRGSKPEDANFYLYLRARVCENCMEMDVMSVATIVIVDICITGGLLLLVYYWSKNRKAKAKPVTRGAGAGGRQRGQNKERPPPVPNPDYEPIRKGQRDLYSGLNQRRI
T2 sequence (P04234 22-171, chain 2 of 3): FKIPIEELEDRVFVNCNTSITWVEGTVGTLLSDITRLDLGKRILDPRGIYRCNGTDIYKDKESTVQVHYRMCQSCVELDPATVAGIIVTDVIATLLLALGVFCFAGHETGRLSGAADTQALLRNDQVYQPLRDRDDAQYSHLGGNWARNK
T2 sequence (P09693 23-182, chain 3 of 3): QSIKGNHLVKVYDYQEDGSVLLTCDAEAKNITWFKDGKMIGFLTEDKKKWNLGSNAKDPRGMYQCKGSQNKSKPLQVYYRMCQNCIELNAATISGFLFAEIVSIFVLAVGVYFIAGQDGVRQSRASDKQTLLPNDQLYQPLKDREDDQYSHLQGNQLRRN
T1 sequence (P07766 23-126): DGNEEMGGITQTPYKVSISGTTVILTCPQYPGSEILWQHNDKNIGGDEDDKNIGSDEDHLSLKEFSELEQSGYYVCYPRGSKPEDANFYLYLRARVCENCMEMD
T4 sequence (P07766 23-126, stated change not applied, form in doubt, chain 1 of 2): as the sequence (P07766 23-126) above
T4 sequence (P04234 22-105, stated change not applied, form in doubt, chain 2 of 2): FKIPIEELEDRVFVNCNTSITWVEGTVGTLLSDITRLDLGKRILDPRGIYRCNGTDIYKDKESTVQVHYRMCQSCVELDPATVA
T5 sequence (Q95LI8 22-105, stated change not applied, form in doubt, chain 2 of 2, one chain of several): as the sequence (P04234 22-105, stated change not applied, form in doubt, chain 2 of 2) above, with I5V, N15K, I20V, S32T, D33N, I34N, T64A, S74N, V83L counted along it

B1: 1-22.6 human-murine chimeric antibody (antibody, human IgG1, kappa, V domains shown)
VH: QIPLVQSGPELKKPGETVKISCKTSGYTFTSYGMSWVKQAPGKGLKWMGWINTYSGVPTYADDFKGRFVFSLDTSASTAFLQINNLKNEDTATYFCARLKNNPFCWGQGSTLTVFS
VL: DVLMTQSPLSLPVRLGDQASISCRSSQLILHSNGNTYLEWYLQKPGQSPKLLIYKVSNRFSGVPDRFSGSGSGTDFTLKISRVEAEDLGVYYCFQGSHFPWTFGGGTKLEIKR
Kd [1]: 5.51 nM
koff [1]: 0.000699 s⁻¹
kon [1]: 127000 M⁻¹ s⁻¹
EC50 (nM), luciferase reporter, Jurkat-Lucia NFAT cells [2]: 11.6 nM
Maximum response value (RLU) [2]: 31700 RLU
EC50 [3]: 18.1 nM
MFI_Max [3]: 15100 MFI
EC50 [4]: 5.51 nM
MFI_Max [4]: 43600 MFI
EC50 [5]: 4.28 nM
MFI_Max [5]: 2080 MFI

B4: 6-44.5-H1-L2 humanized antibody (antibody, human IgG1, kappa, V domains shown)
VH: EVQLVQSGAEVKKPGSSVKVSCKASGHTFSSHIMHWVRQAPGQGLEWMGYINPNNDRTEYSEKFKGRVTITADKSTSTAYMELSSLRSEDTAVYYCAGEAYYSNSLYAMDYWGQGTTVTVSS
VL: DIVMTQSPDSLAVSLGERATINCKSSQSLFNSRTRKNYLAWYQQKPGQSPKLLIYWASTRESGVPDRFSGSGSGTDFTLTISSLQAEDVAVYYCKQSYYLRTFGGGTKVEIKR
EC50 [16]: 0.17 nM
max_MFI [16]: 24800 MFI
EC50 [17]: 0.000225 nM
max-OD450 [17]: 3.07 OD450
EC50 [18]: 0.00947 pM
max-OD450 [18]: 2.84 OD450
Kd [19]: 0.669 nM
koff [19]: 0.000311 s⁻¹
kon [19]: 466000 M⁻¹ s⁻¹
Kd [20]: 69 nM
koff [20]: 0.0339 s⁻¹
kon [20]: 491000 M⁻¹ s⁻¹
EC50 [6]: 0.43 nM
max_MFI [6]: 34000 MFI
EC50 [9]: 0.09 nM
max-OD450 [9]: 2.7 OD450
EC50 [10]: 0.03 nM
max-OD450 [10]: 3.05 OD450

Further lines, with some results ahead:

EC50 [6]: 4.72 nM
max_MFI [6]: 20900 MFI
max-OD450 [7]: 0.15 OD450
EC50 [8]: 23.4 nM
max-OD450 [8]: 1.31 OD450
max-OD450 [9]: 0.06 OD450
EC50 [10]: 23.4 nM
max-OD450 [10]: 1.31 OD450
max-OD450 [11]: 0.05 OD450
EC50 [12]: 23.4 nM
max-OD450 [12]: 1.31 OD450
B2: 7221G20-hIgG1 (antibody, V domains shown)
VH: EVQLVESGGGLVQPGRSLRLSCAASGFTFDDYSMHWVRQAPGKGLEWVSGISWNSGSIGYADSVKGRFTISRDNAKNSLYLQMNSLRAEDTALYYCAKYGSGYGKFYYYGMDVWGQGTTVTVSS
VL: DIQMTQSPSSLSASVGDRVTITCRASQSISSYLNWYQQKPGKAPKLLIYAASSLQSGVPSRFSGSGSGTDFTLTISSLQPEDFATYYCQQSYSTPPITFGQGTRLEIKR
binding result [7]: no binding (tested: 100 nM (initial concentration))

MFI at antibody concentration 4 nM [13]: 16100 MFI
Kd [1]: 0.542 nM
koff [1]: 0.000241 s⁻¹
kon [1]: 445000 M⁻¹ s⁻¹
EC50 (nM), luciferase reporter, Jurkat-Lucia NFAT cells [14]: 11.8 nM
Maximum response value (RLU) [14]: 10400 RLU
EC50 [15]: 1.58 nM
MFI_Max [15]: 8980 MFI
B3: 8-18.1 human-murine chimeric antibody (antibody, human IgG1, kappa, V domains shown)
VH: QVQLQQSGAELARPGASVKMSCKASGYIFTMNTMHWVKQRPGQGLEWIGYINPYSGYTKYNQIFKDKATLTADKSSSTAYMRLSSLTSEDSAVYYCLRGGEGVWGQGTTLTVSS
VL: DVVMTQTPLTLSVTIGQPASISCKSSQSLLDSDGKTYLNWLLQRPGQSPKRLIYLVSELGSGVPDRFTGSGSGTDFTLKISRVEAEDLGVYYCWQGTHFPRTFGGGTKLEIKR
notes: Human IgG1 chimera
